Numbering of substitutions follows the chain as printed.

Here are results for 4 molecules from article PMC10960945, “A nanobody inhibitor of Fascin-1 actin-bundling activity and filopodia formation” (Open Biology, 2024).

In the assay the target is Fascin-1 1-493 (full-length human Fascin-1 WT, untagged) (human, UniProt Q16658). The assay can be described thus: pull-down; in vitro co-precipitation of recombinant proteins: His-tagged Nbs immobilised on Nickel Sepharose as bait for untagged Fascin-1; SDS-PAGE. To be noted: both partners purified.

B1: Nb 3B9 (VHH)
VHH: QVQLQESGGGLVQAGGSLRLSCAASGRTFSSYAMGWFRQAPGMEREFVAAIPWIGGNTYYADSVKGRFTISRDNAKTLYLLMNSLKPEDTALYYCAARAHSYVLSTSPSHYDYWGQGTQVTVSS
notes: Eluted in SEC as a dimer and a monomer population; the two were kept separate in the later assays and counted as two of the 14 Nbs; not shown: His-tag, C-terminal, kept
B1: the binding result is given as “binds”.

B2: Nb 3G9 (VHH)
VHH: B1 VHH with G16D, G26R, F29S, S30N, S31T, M43K
notes: as for B1
With B2, the binding result was “binds”.

B3: Nb 3H7 (VHH)
VHH: QVQLQESGGGLVQAGGSLRLSCAGPVRAFNTYAMGWFRQAPGKEREFVAAITRSGDVTYYSNSVKGRFTISRENAKNTVYLHMNSLKPEDTAVYSCAADAQLTPLNPRAQEYAYWGQGTQVTVSS
notes: also called nanobody 3H7; not shown: His-tag, C-terminal, kept
In the case of B3, the binding result is recorded as “binds”.

B4: Nb 3G11 (VHH)
VHH: QVQLQESGGGLVQAGGSLRLSCAVSGRLNSRYSMGWFRQAPGKEREFVAVVKWTTGGTMYADSVKGRFTISRDNRKNTVYLQMNTLKPEDTALYYCASRPDYSNSYYYTTVSDYSDWGQGTQVTVSS
notes: also called nanobody 3G11; not shown: His-tag, C-terminal, kept
With B4, the binding result is given as “binds”.
